Reference: the DeepSol protein solubility set

experiment: soluble on expression in E. coli; label from the status in PepcDB or PDB records

Sequence	soluble on expression in E. coli
MGSSHHHHHHSSGRENLYFQGMKVVFLICNPAAGGGRAGKIWNRVEDLLKKHGIDHKFAFTERPGHAMEISKKAFKEGYRRIAAFGGDGTVNEMVNGIFLNGYDLREVVFGWIPFGSGKDWARTIGVPLEIEEAIKMLKDGKEFVQDLGVGEYEKASGEIEKRAFVNVAGLFFDGFVTYRTNLLKRKNRVSYFSRIFSSIIEYDPPTARIQIDEKVWEKRVFSMNVGICKYNGGGMNQLPHAVPDDGLLAVTVINDIGKLRILANLHRVFNGKLLEHPGVEGYQAKKVVVEFQRDEPVEFDGESFWAKKIFFSIIPGVIRVLVKK	soluble
MGSSHHHHHHSSGRENLYFQGMSVVFGVDIVGGSVHGKIKPKYAVVVLENGNEFEKIVSRSKLFRMVKKEKPDIIAVDNIYEVFKDKKDLIFFLKNAPSKTKLVQVTDRENSLPSLSKRFGLNINIRNPVDEARACAYLASFGMGSEISVFTDKTKITVSRNRSLGKGGWRQKKYGRKIHNAVREVYKEIRDRIVEAGFEFVEEVRKGYGGISRGVILVSAPRDRVPINSFKTRDVQVAVEAVEKEKIEFIPLRRTLRYLIVGIDPGATTAIAALDLRGELVDMKSRKGWSPAEVIEFISSLGKPVVVSTDKSSPPEFVSKIRASFNAVLYTPKEDMSVEKKRILTSKYSTSNDHERDALAAAIDAFNSYKSKLINVEKRLPAGIDSDRIKAEIIRGTPLKEVLSVTREESREEKVQAETVSREEILKRDRVIERLKEENRILSRKIKEMKDEIEKLRARVASISREEHEKIRKDTYVQNLEREIFDLRKKLKEKDEEIEQLKERIALLRKMKMLEFQGWKEVKVLRKFTKEEIERAEREMGISEGDIILIVDSSGGSASLAEMLCEKKVRAIIYGSEMSHLAAETFEKYNIPRISIDEVEIMMGDDIAVVNAEEFERVYAEKLEETKRRKIDFLEKLVEDYRRRRVV	soluble
MGSSHYHHHHSSGLVPRGSHMAEKPISPTKTRTRFEDIQAHYDVSDDFFALFQDPTRTYSCAYFEPPELTLEEAQYAKVDLNLDKLDLKPGMTLLDIGCGWGTTMRRAVERFDVNVIGLTLSKNQHARCEQVLASIDTNRSRQVLLQGWEDFAEPVDRIVSIEAFEHFGHENYDDFFKRCFNIMPADGRMTVQSSVSYHPYEMAARGKKLSFETARFIKFIVTEIFPGGRLPSTEMMVEHGEKAGFTVPEPLSLRPHYIKTLRIWGDTLQSNKDKAIEVTSEEVYNRYMKYLRGCEHYFTDEMLDCSLVTYLKPGAAA	soluble
MGSVAARDYVGIATKYAEAAVADKGRKRHGRWIRLAAKRFLDDLKRARRRGTPFFFDEWHANDACDFIEKLPHVEGKWETPTIVMHPSHVFFVVQLFGFRRRDAIKVEGWGDDDTFHPRRFTSALFAVARKNAKSTLASAILLYCLCCEPEEGAQVISAATTFDQASIIFRASKRMVEKTPDLAEAFGLATWAKSISRFETGSSYKAVHAKASTQDGLNPSHTGLDEIHAHKTADLLNVLQSAAGARANPLWLFTTTEGYTNAGPWAEIRGFVFALLRGVLGTQADHFLALFYALDNEDKSAKITQDDEFDESKWIKANPLLDVNPHLKAAIRKEAVEAKQMPSKLAEFRIKRCNRPASTASGWVDLTKWAKCGGAVDLDWLAGYPCWGGLDLASTTDIAAFRLLWLVEGVWYTHGWRWVPSEAVKQRTERATVPYAGWVEAGYLLQTEGDVTDYSVIERDILAAVQRFDPQQIAYDAWNAADLVNRLVAASVPMVQFVQGTKSYHPAMQALELAYVGGKLVHGGDPVLAWCASNLVARRDVNLSMAPDRKRSADKIDDMAALLMAMGLAVASDDAEDLSDFFNNAVIGLEHHHHHH	soluble
MGSVSKANVPKIDVSPLFGDDQAAKMRVAQQIDAASRDTGFFYAVNHGINVQRLSQKTKEFHMSITPEEKWDLAIRAYNKEHQDQVRAGYYLSIPGKKAVESFCYLNPNFTPDHPRIQAKTPTHEVNVWPDETKHPGFQDFAEQYYWDVFGLSSALLKGYALALGKEENFFARHFKPDDTLASVVLIRYPYLDPYPEAAIKTAADGTKLSFEWHEDVSLITVLYQSNVQNLQVETAAGYQDIEADDTGYLINCGSYMAHLTNNYYKAPIHRVKWVNAERQSLPFFVNLGYDSVIDPFDPREPNGKSDREPLSYGDYLQNGLVSLINKNGQT	soluble
MGTFTLHQGQTNLIKSFFRNYYLNAELELPKDMELREFALQPFGSDTYVRHLSFSSSEELRDYLVNRNLPLHLFYSSARYQLPSARNMEEKAWMGSDLLFDIDADHLCKLRSIRFCPVCGNAVVSEKCERDNVETLEYVEMTSECIKRGLEQTRNLVEILEDDFGLKPKVYFSGNRGFHVQVDCYGNCALLDSDERKEIAEYVMGIGVPGYPGGSENAPGWVGRKNRGINGVTIDEQVTIDVKRLIRIPNSLHGKSGLIVKRVPNLDDFEFNETLSPFTGYTIFLPYITIETEVLGSIIKLNRGIPIKIKSSIGIYLHLRNLGEVKAYVR	soluble
MGTIPASTYYPTHFMRGTQLNVANGNIKKVEDLSSDDFLRCAAESDDVIVNASVIKSIKSTAGSVTIIFETGIEKQLIPLKCQVEHPFFVLGKGWCSCNPRKSGENYGLDCEILQVDDVCIVLTRNEDKITDCAVDIVTAERDLELFSQRAALKEQLVDVYYERVSGRVSAPPERVLVTFSNEHRERRISE	not soluble
MGTLLATRLKNRRKELKMSQRELAEGICKQGQISRLESGEFTPGADFLHALAKKLKVSMDYFFDEQVVEEVNELSEFKKLAQTFITNRNYESLKYIYELENVKAHRLSLADKFYMEWIKSLIDFYFYGQKEEAITRLENMLPQLNVSDLNYLQVSNTLFNFYYDIEDLERFNEIRDKLEHQVNQLNLNTIEELELSIKFNYNVCRYLWLQKNIEEAITKITATIKQCKEYRTTYLLADLYLLMGSVSENFSSKSSVKEYFETAHFLYKLEENMSMALKVEHYFADITE	not soluble
MGTWPLTVTKEMEKRKELFRRDPNRALIGAGGYKAADEAIVHDAAIALALGKNVLLKGPTGSGKTRLAETLSALFGQPMHSINCSVDLDAEALLGFKTIVHKNSQAVIEYVPGPVIQAMTKGHLLYIDEINMAKPETLPILNSVLDYRRRLTNPLTGDIVQAKQTFGVIAAINEGYIGTVPLNEALKNRFVVINVPYVQGETLKSVLLAQTTLTDETLIDRFVALSADLLAQVRNGQIAEEAASVRALLDACDLAAYMPPLRAIERSIVDKLDDERERAAVRNIAETWFDE	not soluble
MGVCRICGLSLDEISDSIGVCLECLRKGNLDFARKAHRKWREEIGLPVERWAREEGKVCFLCVNSCVIPEGKTGFCGVLRNEGGRLSYITGSHRKAFLHWYYDPHPTNCVALPICPEREHRGFYNFAVFFAGCNLDCLFCQNIDHKYMVKDGRISEGKIVDIDELVEIAMKPRVSCVCFFGGDPTPWTVFALEFAVKLGNRRRICWETNGLAHPRIMERMARVSLESGGIVKIDWKAFSPEVYEALTGVDGKSAVRRIMENVQLVSSMGKGREIPLLVISVLVIPHYIDEKEIEGIAGFISSVDPEIPLVLLAFAPQHLMSDLPTTRKHHMERVKQKALEKGLKRVFVENVWLLS	not soluble
MGVVNVPSNGREKFKKNWKFCVGTGRLGLALQKEYLDHLKLVQEKIGFRYIRGHGLLSDDVGIYREVEIDGEMKPFYNFTYIDRIVDSYLALNIRPFIEFGFMPKALASGDQTVFYWKGNVTPPKDYNKWRDLIVAVVSHFIERYGIEEVRTWLFEVWNEPNLVNFWKDANKQEYFKLYEVTARAVKSVDPHLQVGGPAICGGSDEWITDFLHFCAERRVPVDFVSRHAYTSKAPHKKTFEYYYQELEPPEDMLEQFKTVRALIRQSPFPHLPLHITEYNTSYSPINPVHDTALNAAYIARILSEGGDYVDSFSYWTFSDVFEEMDVPKALFHGGFGLVALHSIPKPTFHAFTFFNALGDELLYRDGEMIVTRRKDGSIAAVLWNLVMEKGEGLTKEVQLVIPVSESAVFIKRQIVNEQYGNAWRVWKQMGRPRFPSRQAVETLRQVAQPHVMTEQRRATDGVIHLSIVLSKNEVTLIEIEQVRDETSTYVGLDDGEITSYSS	soluble
MGYKELLLECQKLLNEGDFEGMIKKLEELSKMEPSSKEEAEESLKLLDFLIEEVKKRQEEIFNKMVNYQKFKNYLR	not soluble
MHAVHQLHQYRKSLSTTTYKSRGQRVIRCQLCQLAKPFCICEISPLKENVETTAGFLLLMYDTEVLKPSNTGKLIADLIPDTFAFLWSRTQENPDLLAVINDEKWFPLVVFPQEYADDERKVFTNNVICPEGKRPLFIMLDGSWREAKKMFRKSPYLDRFPMVSFDVKTAIQAVSGNCQSENNSQLSPVGQDSRYTVRKTELEHQFSTAEVAARVLDMHGETTNAHMLDLWFDVFNFQYQKGVCQRNKGNVNAIENYQSFLAKTYRLEHHHHHH	not soluble
MHELFHPIFANGEEKAALQQLIIALDASGKRYFLRNEILHTFSQYCQQAQKPTYFYYSSSVGKLIQYTHEIVLAEDGTWFVVRPRIASQEVWRLTSDLAKFDSMSIDAFLDVSDRLVNAYEPNILEIDLNSFYEASPSISDPRNIGQGLAFLNRYLCSQIATDPQYWVELVYLALRGLQYDGINLMIGDAIPSGIHLAKQIHAAIKFLSALPPEEPYEKFYIELQKLGFEPGWGNTAQRILETITLLDKLIDSPQPAVLEAFVARVPAVFRVVLVSIHGWVAQEDVMGRDETLGQVIYVLEQARSLENKLQQEIKLAGLEVLGIQPHVIILTRLIPNCEGTYCNLRLEKLHNTENAWILRVPFGEFNPEITNNWISKFEIWPYLETFALDAEKQLLAQFQGKPNLIIGNYSDGNLVAFLLARRLKVTHCNIAHSLEKPKNLFSNLYWQDSEEKYHFSVQFTADLITMNAADFIITSSYQEIFGTPESIGQYESYKFFTMPHLYHVVDGIDLFNPKFNMVPPGVNEQVFFPYSQTADRDPNVSKHVHDLLEHHHHHH	not soluble
MHHFSTGSSSAIIASSSSSSSSSNGYGHSPRDLLTGAAVANGGGGGFGGVAGVAFATTSPPTPVNLDVQRIDCTDETTVVMVKLTDEMFAALQESQRSGKPLRINVNDKEGRVEIGDGTASSKTNNTFYFQKQTVPEQTDTLVHSGGGVRNVGTYKTKYQIQATDRSFQETKKRAELRAEVEKSRGTKQMKKSGVTSSSSRYHNSSNSTPRSMNSAPNSSRVSPSFMSSSSSKASTSHVTTNNSKGTPNNGSESKKIDMTPQLMKHSIKKRIIHLIVTQKYSNWEEVYKKLKSDGLPEEKDEIEKIRSCVEEVSETRPEMSVMSLRTSFLSEVDQRWMFFNQEEKSHVRRLCNSGSRVGPTDNNFAPLRKKGMERITASSKTEKDKVKEKLEEAAKIPSPPKDQKSLPSIVEEDDYYTAPPEPANKRRAHNLAPPPPPPVQVVTPQTTSSQTETGPLPPKRTKRPESSSPQLERSSQPASKLNPIKLAATIAMQPIPKCDPPPPPPSRDTYHHNVASVAVNGGGSTASSRVSSPASSLSSPSQPSCNWEKQFGDIKTLSEAEAYFKQFHKEYPLYMECHEMLTKVSSEFRGLEVKLLTAVALSKTSPSPQNMQNVKQIEKNIQNRYAHFEKDPEFMKARQRHTDLRSKLNVLKTRIGSWEKMRRQSSTNV	soluble
MHHHHHHGGGGGMINKPNQFVNHLSALKKHFASYKELREAFNDYHKHNGDELTTFFLHQFDKVMELVKQKDFKTAQSRCEEELAAPYLPKPLVSFFQSLLQLVNHDLLEQQNAALASLPAAKIIELVLQDYPNKLNMIHYLLPKTKAFVKPHLLQRLQFVLTDSELLELKRFSFFQALNQIPGFQGEQVEYFNSKLKQKFTLTLGEFEIAQQPDAKAYFEQLITQIQQLFLKEPVNAEFANEIIDAFLVSYFPLHPPVPLAQLAAKIYEYVSQIVLNEAVNLKDELIKLIVHTLYEQLDRPVGDEN	soluble
